Assay [1] concerns the target EGFR on HeLa cells (UniProt P00533 25-1210, limits assumed). The assay can be described thus: cell-based or functional assay.
The target in assay [2] is T1, cynomolgus monkey CD3 (cynomolgus monkey, UniProt Q95LI5 22-198; Q95LI8 22-171; Q95LI7 23-181).
T1 construct: whole, on cells; CD3 on purified cynomolgus monkey CD3 pan T cells; also called cyno CD3; CD3 on cyno primary T cells
The assay can be described thus: flow cytometry, cyno primary T cells. In outline: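 Binding reported as fold over isotype: median fluorescence intensity divided by isotype control, with ≥10 scored positive. Cells were exposed to 25 nM antibody in PBS/2% FBS, 30 min, 4 °C, before flow cytometric read-out.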
For orientation: A flow cytometer gives signals particle by particle.

T1 sequence (Q95LI5 22-198, chain 1 of 3): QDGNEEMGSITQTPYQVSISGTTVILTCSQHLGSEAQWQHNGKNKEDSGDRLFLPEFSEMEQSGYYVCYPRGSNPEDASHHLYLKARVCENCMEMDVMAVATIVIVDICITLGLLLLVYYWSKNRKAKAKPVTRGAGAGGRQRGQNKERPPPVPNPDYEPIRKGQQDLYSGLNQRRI
T1 sequence (Q95LI8 22-171, chain 2 of 3): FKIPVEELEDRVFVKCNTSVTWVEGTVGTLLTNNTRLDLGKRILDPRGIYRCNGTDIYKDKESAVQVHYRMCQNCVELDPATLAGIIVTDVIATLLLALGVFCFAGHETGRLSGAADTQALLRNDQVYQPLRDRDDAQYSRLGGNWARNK
T1 sequence (Q95LI7 23-181, chain 3 of 3): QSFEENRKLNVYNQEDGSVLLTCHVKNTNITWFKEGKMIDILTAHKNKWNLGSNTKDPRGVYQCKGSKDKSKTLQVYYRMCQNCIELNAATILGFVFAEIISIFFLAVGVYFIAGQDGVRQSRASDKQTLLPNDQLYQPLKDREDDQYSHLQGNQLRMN

B1: GOMP001_bsAb_050 (bispecific antibody, human IgG1, kappa, L234A L235A)
heavy 1: QVQLVESGGGVVQPGRSLRLSCAASGFTFSTYGMHWVRKAPGKGLEWVAVIWYDGSHKYYADEVKGRFTISRDNSKKTLYLQMNSLRAEDTGIYYCARTGISGNMSYFYFDHWGQGILVTVSSASTKGPSVFPLAPSSKSTSGGTAALGCLVADYFPEPVTVSWNSGALTSGVHTFPAVLQSSGLYSLSSVVTVPSSSLGTQTYICNVNHKPSNTKVDEKVEPKSCDKTHTCPPCPAPEAAGGPSVFLFPPKPKDTLMISRTPEVTCVVVDVSHEDPEVKFNWYVDGVEVHNAKTKPREEQYNSTYRVVSVLTVLHQDWLNGKEYKCKVSNKALPAPIEKTISKAKGQPREPQVYTLPPSREEMTDNQVSLTCLVKGFYPSDIAVEWESNGQPENNYKTTPPVLMSDGSFFLASKLTVDKSRWQQGNVFSCSVMHEALHNHYTQKSLSLSPG
light 1: not shown
heavy 2: QVQLVQSGAEVKKPGASVKVSCKASGYTFTSHWMHWVRYAPGQGLEWIGEFNPSNGRTNYNEKFKSKATMTVDTSTNTAYMELSSLRSEDTAVYYCASRDYDYDGRYFDYWGRGTLVTVSSASTKGPSVFPLAPSSKSTSGGTAALGCLVKDYFPEPVTVSWNSGALTSGVHTFPAVLQSSGLYSLSSVVTVPSSSLGTQTYICNVNHKPSNTKVDKKVEPKSCDKTHTCPPCPAPEAAGGPSVFLFPPKPKDTLMISRTPEVTCVVVDVSHEDPEVKFNWYVDGVEVHNAKTKPREEQYNSTYRVVSVLTVLHQDWLNGKEYKCKVSNKALPAPIEKTISKAKGQPRRPRVYTLPPSREEMTKNQVSLVCLVKGFYPSDIAVEWESNGQPENNYKTTPPVLDSDGSFFLYSVLTVDKSRWQQGNVFSCSVMHEALHNHYTQKSLSLSPG
light 2: DIQMTQSPSSLSASVGDRVTITCSASSSVTYMYWYQRKPGDAPKLLIYDTSNLASGVPSRFSGSGSGTDYTFTISSLQPEDIATYYCQQWSSHIFTFGQGTKVEIKRTVAAPSVFIFPPSDEQLKSGTASVVCLLNNFYPREAKVQWKVDNALQSGNSQESVTEQDSKDSTYSLSSTLTLSKADYEKHKVYACEVTHQGLSSPVTKSFNRGEC
As for B1, the Max killing % in assay [1] stood at 57%.

B2: GOMP001_bsAb_051 (bispecific antibody, human IgG1, kappa, L234A L235A)
heavy 1: QVQLVQSGAEVKKPGASVKVSCKASGYTFTSHWMHWVRKAPGQGLEWIGEFNPSNGRTNYNEEFKSKATMTVDTSTNTAYMELSSLRSEDTAVYYCASRDYDYDGRYFDYWGQGTLVTVSSASTKGPSVFPLAPSSKSTSGGTAALGCLVADYFPEPVTVSWNSGALTSGVHTFPAVLQSSGLYSLSSVVTVPSSSLGTQTYICNVNHKPSNTKVDEKVEPKSCDKTHTCPPCPAPEAAGGPSVFLFPPKPKDTLMISRTPEVTCVVVDVSHEDPEVKFNWYVDGVEVHNAKTKPREEQYNSTYRVVSVLTVLHQDWLNGKEYKCKVSNKALPAPIEKTISKAKGQPREPQVYTLPPSREEMTDNQVSLTCLVKGFYPSDIAVEWESNGQPENNYKTTPPVLMSDGSFFLASKLTVDKSRWQQGNVFSCSVMHEALHNHYTQKSLSLSPG
light 1: RIQMTQSPSSLSASVGDRVTITCSASSSVTYMYWYQDKPGKAPKLLIYDTSNLASGVPSRFSGSGSGTDYTFTISSLQPEDIATYYCQQWSSHIFTFGQGTKVEIKRTVAAPSVFIFPPSDKQLKSGTARVVCLLNNFYPREAKVQWKVDNALQSGNSQESVTEQDSKDSTYSLSSTLTLSKADYEKHKVYACEVTHQGLSSPVTKSFNRGEC
heavy 2: QVQLVQSGAEVKKPGASVKVSCKASGYTFTSYYIHWVRYAPGQGLDWMGIINPSGGITGYAQKLQGRVTMTRDTSTTTVYMELSSLRSDDTAVYYCARGVRGNYYYYYMDVWGRGTTVTVSSASTKGPSVFPLAPSSKSTSGGTAALGCLVKDYFPEPVTVSWNSGALTSGVHTFPAVLQSSGLYSLSSVVTVPSSSLGTQTYICNVNHKPSNTKVDKKVEPKSCDKTHTCPPCPAPEAAGGPSVFLFPPKPKDTLMISRTPEVTCVVVDVSHEDPEVKFNWYVDGVEVHNAKTKPREEQYNSTYRVVSVLTVLHQDWLNGKEYKCKVSNKALPAPIEKTISKAKGQPRRPRVYTLPPSREEMTKNQVSLVCLVKGFYPSDIAVEWESNGQPENNYKTTPPVLDSDGSFFLYSVLTVDKSRWQQGNVFSCSVMHEALHNHYTQKSLSLSPG
light 2: EIVLTQSPDFQSVTPKEKVTITCRASQSIGSKLHWYQRKPDDSPKLLIKYASQSFSGVPSRFSGSGSGTDFNLTINSLEAEDAATFYCHQSSGLPYTFGQGTKLEIKRTVAAPSVFIFPPSDEQLKSGTASVVCLLNNFYPREAKVQWKVDNALQSGNSQESVTEQDSKDSTYSLSSTLTLSKADYEKHKVYACEVTHQGLSSPVTKSFNRGEC
On to B2, for which the Max killing % in assay [1] was 60.2%.

B3: GOMP001_bsAb_056 (bispecific antibody)
heavy 1: EVNLVESGGGLVQPGRSLRLSCAASGFTFDDYTMHWVRKVPGKGLEWVSNISWNSGSLGYADEVKGRFTISRDNAKDSLYLQMNSLRVEDTALYYCAKDSSGYGHYNSYYMDVWGKGTTVTVSSASTKGPSVFPLAPSSKSTSGGTAALGCLVADYFPEPVTVSWNSGALTSGVHTFPAVLQSSGLYSLSSVVTVPSSSLGTQTYICNVNHKPSNTKVDEKVEPKSCDKTHTCPPCPAPEAAGGPSVFLFPPKPKDTLMISRTPEVTCVVVDVSHEDPEVKFNWYVDGVEVHNAKTKPREEQYNSTYRVVSVLTVLHQDWLNGKEYKCKVSNKALPAPIEKTISKAKGQPREPQVYTLPPSREEMTDNQVSLTCLVKGFYPSDIAVEWESNGQPENNYKTTPPVLMSDGSFFLASKLTVDKSRWQQGNVFSCSVMHEALHNHYTQKSLSLSPG
light 1: RIQMTQSPSSLSASVGDRVTITCRASQSIRNYLNWYQDKPGKAPKVLIYSASSLQSGVPSRFSGSGSGTDFTLTISSLQPEDFASFYCQQTYSTPITFGQGTRLEIKRTVAAPSVFIFPPSDKQLKSGTARVVCLLNNFYPREAKVQWKVDNALQSGNSQESVTEQDSKDSTYSLSSTLTLSKADYEKHKVYACEVTHQGLSSPVTKSFNRGEC
heavy 2: QVQLVQSGAEVKKPGASVKVSCKASGYTFTSHWMHWVRYAPGQGLEWIGEFNPSNGRTNYNEKFKSKATMTVDTSTNTAYMELSSLRSEDTAVYYCASRDYDYDGRYFDYWGRGTLVTVSSASTKGPSVFPLAPSSKSTSGGTAALGCLVKDYFPEPVTVSWNSGALTSGVHTFPAVLQSSGLYSLSSVVTVPSSSLGTQTYICNVNHKPSNTKVDKKVEPKSCDKTHTCPPCPAPEAAGGPSVFLFPPKPKDTLMISRTPEVTCVVVDVSHEDPEVKFNWYVDGVEVHNAKTKPREEQYNSTYRVVSVLTVLHQDWLNGKEYKCKVSNKALPAPIEKTISKAKGQPRRPRVYTLPPSREEMTKNQVSLVCLVKGFYPSDIAVEWESNGQPENNYKTTPPVLDSDGSFFLYSVLTVDKSRWQQGNVFSCSVMHEALHNHYTQKSLSLSPG
light 2: DIQMTQSPSSLSASVGDRVTITCSASSSVTYMYWYQRKPGDAPKLLIYDTSNLASGVPSRFSGSGSGTDYTFTISSLQPEDIATYYCQQWSSHIFTFGQGTKVEIKRTVAAPSVFIFPPSDEQLKSGTASVVCLLNNFYPREAKVQWKVDNALQSGNSQESVTEQDSKDSTYSLSSTLTLSKADYEKHKVYACEVTHQGLSSPVTKSFNRGEC
For B3, in assay [1], the Max killing % was determined as 96.3% and the “X… HeLa EC50” value was 13.5 pM.

B4: GOMP001_bsAb_055 (bispecific antibody, human IgG1, kappa, L234A L235A)
heavy 1: QVQLVQSGAEVKKPGASVKVSCKASGYTFTSHWMHWVRKAPGQGLEWIGEFNPSNGRTNYNEEFKSKATMTVDTSTNTAYMELSSLRSEDTAVYYCASRDYDYDGRYFDYWGQGTLVTVSSASTKGPSVFPLAPSSKSTSGGTAALGCLVADYFPEPVTVSWNSGALTSGVHTFPAVLQSSGLYSLSSVVTVPSSSLGTQTYICNVNHKPSNTKVDEKVEPKSCDKTHTCPPCPAPEAAGGPSVFLFPPKPKDTLMISRTPEVTCVVVDVSHEDPEVKFNWYVDGVEVHNAKTKPREEQYNSTYRVVSVLTVLHQDWLNGKEYKCKVSNKALPAPIEKTISKAKGQPREPQVYTLPPSREEMTDNQVSLTCLVKGFYPSDIAVEWESNGQPENNYKTTPPVLMSDGSFFLASKLTVDKSRWQQGNVFSCSVMHEALHNHYTQKSLSLSPG
light 1: RIQMTQSPSSLSASVGDRVTITCSASSSVTYMYWYQDKPGKAPKLLIYDTSNLASGVPSRFSGSGSGTDYTFTISSLQPEDIATYYCQQWSSHIFTFGQGTKVEIKRTVAAPSVFIFPPSDKQLKSGTARVVCLLNNFYPREAKVQWKVDNALQSGNSQESVTEQDSKDSTYSLSSTLTLSKADYEKHKVYACEVTHQGLSSPVTKSFNRGEC
heavy 2: EVNLVESGGGLVQPGRSLRLSCAASGFTFDDYTMHWVRYVPGKGLEWVSNISWNSGSLGYADRVKGRFTISRDNAKDSLYLQMNSLRVEDTALYYCAKDSSGYGHYNSYYMDVWGRGTTVTVSSASTKGPSVFPLAPSSKSTSGGTAALGCLVKDYFPEPVTVSWNSGALTSGVHTFPAVLQSSGLYSLSSVVTVPSSSLGTQTYICNVNHKPSNTKVDKKVEPKSCDKTHTCPPCPAPEAAGGPSVFLFPPKPKDTLMISRTPEVTCVVVDVSHEDPEVKFNWYVDGVEVHNAKTKPREEQYNSTYRVVSVLTVLHQDWLNGKEYKCKVSNKALPAPIEKTISKAKGQPRRPRVYTLPPSREEMTKNQVSLVCLVKGFYPSDIAVEWESNGQPENNYKTTPPVLDSDGSFFLYSVLTVDKSRWQQGNVFSCSVMHEALHNHYTQKSLSLSPG
light 2: DIQMTQSPSSLSASVGDRVTITCRASQSIRNYLNWYQRKPGDAPKVLIYSASSLQSGVPSRFSGSGSGTDFTLTISSLQPEDFASFYCQQTYSTPITFGQGTRLEIKRTVAAPSVFIFPPSDEQLKSGTASVVCLLNNFYPREAKVQWKVDNALQSGNSQESVTEQDSKDSTYSLSSTLTLSKADYEKHKVYACEVTHQGLSSPVTKSFNRGEC
Consider B4, for which, in assay [1], the Max killing % worked out at 78% and the “X… HeLa EC50” value was 182 pM.

B5: mAb 314 (antibody, V domains shown)
VH: EVQLLESGGGLVQPGGSLRLSCAASGFTFSSYAMSWVRQAPGKGLEWVSVISGSGGNKNYADSVKGRFTISRDNSKNTLYLQMNSLRAEDTAVYYCAKKFSYYYYYMDVWGKGTTVTVSS
VL: SYELTQPLSVSVALGQTARITCGGNNIGSKDVHWYQQKPGQAPVLVIYRDSNRPSGIPERFSGSNSGNTATLTISRAQAGDEADYYCQVWDSRTAVFGGGTQLTAL
notes: VH and VL only
Consider B5, for which, in assay [2], the binding result is given as “no binding (tested: FOI ≥10 = positive; 25 nM)”.

B6: mAb 295 (antibody, V domains shown)
VH: EVQLLESGGGLVQPGGSLRLSCAASGITFSSYAMSWVRQAPGKGLEWVSTISGNGGTLYYTDSVKGRFTISRDNSKNTLYLQMNSLRAEDTAVYYCAKKYSYYYYYMDVWGKGTTVTVSS
VL: SYELTQPLSVSVALGQTARITCGGNNIGSKNVHWYQQKPGQAPVLVIYRDSNRPSGIPERFSGSNSGNTATLTISRAQAGDEADYYCQVWDSSTAVFGGGTQLTAL
notes: VH and VL only
With B6, the binding result in assay [2] is recorded as “no binding (tested: FOI ≥10 = positive; 25 nM)”.

B7: mAb 291 (antibody, V domains shown)
VH: EVQLLESGGGLVQPGGSRRLSCAASGFTFSSYALSWVRQAPGKGLEWVSVINTRGDSTSYADSVKGRFTISRDNSKNTLYLQMNSLRAEDTAVYYCAKKYSYYYYYMDVWGKGTTVTVSS
VL: SYELTQPLSVSVALGQTARITCGGNNIGSKDVHWYQQKPGQAPVLVIYRDSNRPSGIPERFSGSNSGNTATLTISRAQAGDEADYYCQVWDSRTAVFGGGTQLTAL
notes: VH and VL only
Take B7: the binding result in assay [2] is “no binding (tested: FOI ≥10 = positive; 25 nM)”.

The record behind these values is patent US20230295310A1 (ABCELLERA BIOLOGICS, published 2023).
